Assay [1] has as its target T1, cell surface human mesothelin (MSLN) (human, UniProt Q13421 296-598).
T1 construct: whole, on cells; also called cell surface MSLN
In words: flow cytometry (BD CantoII), NCI-H226 cells.

In assay [2] the target is T2, human MSLN-His-Avi (human, UniProt Q13421 296-598, single biotin (BirA) in the biotinylated form).
T2 construct: Monomeric, made in HEK293-6E; Used both immobilised and in solution; also called hMSLN-His-Avi; biotinylated hMSLN-His-Avi
Nature of the assay: SPR (Biacore), MSLN immobilised, mAb^2 injected. Here is the method:
(§1) Human MSLN-His-Avi was immobilised on flow cell 2 on a CM5 Series S BIAcore sensor chip (GE Healthcare, BR100530) using an amine coupling kit (GE Healthcare, BR10050) to approximately 200 response units (RU). Flow cell 1 was left blank for subtraction. HEK293-6E supernatants or purified proteins were adjusted with HBS-EP+(GE Healthcare) to approximately 50 nM anti-MSLN mAb per sample. Samples were injected over flow cell 1 and 2 for 2.5 min at 30 μl/min and then allowed to dissociate in HBS-EP buffer for 2.5 min. Regeneration was achieved by injecting 10 mM glycine pH 1.5 (GE Healthcare, BR100354) for 30 seconds at a rate of 30 μl/min. Subtracted data (flow cell 2−flow cell 1) were analysed using BIAevaluation 3.2 Software (GE Healthcare).
(§2) Binding of the selected anti-MSLN clones in mAb² format, to recombinant human and cyno MSLN-His-Avi antigen was measured by SPR using a Biacore T200 processing unit (GE Healthcare). As previously described, it was desirable to bind more strongly to immobilised antigen than to soluble antigen. To assess the binding properties of the clones, binding kinetics to immobilised MSLN antigen were determined as described in section 2.1.2 and compared to the kinetics obtained when MSLN antigens in solution bound to captured clones.
Background: Surface plasmon resonance follows binding to a sensor surface in real time, without labels.

Assay [3] addresses T2, human MSLN-His-Avi. In words: ratio of the two SPR KD. Here is the method: as §1, §2
(§3) For the capture experiments, clones in mAb² format were captured using a BIAcore sensor series S chip Protein G (GE Healthcare, 29179315). mAb² diluted in HBS-EP buffer (GE Healthcare, BR100188) containing 900 mM […] at 1 μg/ml, were injected individually on flow cell 2, 3 and 4 at 30 μl/min to achieve a response of approximately 100 RU. G1-AA/HeID1.3 was captured on flow cell 1. The recombinant human and cyno MSLN-His-Avi (section 1.1), diluted in HBS-EP buffer containing 900 mM […], were injected on flow cell 1, 2, 3 or 4 as appropriate at a concentration range of 1000 nM to 0.051 nM with 3-fold dilutions for 5 minutes at 70 μl/min and then allowed to dissociate in buffer for 5 minutes. Regeneration was achieved by injecting 10 mM glycine pH1.5 (GE Healthcare, BR100354) and surfactant P20 (GE Healthcare, BR-1000-54) for 20 seconds at a rate of 30 μl/min.

Assay [4] addresses T2, human MSLN-His-Avi. Nature of the assay: SPR (Biacore), mAb^2 captured on Protein G, MSLN in solution injected. On the procedure: as §2
as §3, with “μl/min. Subtracted data (flow cell 2−flow cell 1, flow cell 3−flow cell 1, or flow cell 4−flow cell 1) were analysed using BIAevaluation 3.2 Software (GE Healthcare) to identify binding using the model 1:1 binding, local Rmax and with refractive index (RI) constant 0.” for “μl/min.”

The target in assay [5] is T3, cynomolgus MSLN-His-Avi (cynomolgus, single biotin (BirA) in the biotinylated form).
T3 construct: Monomeric, made in HEK293-6E; also called cMSLN-His-Avi; cyno MSLN-His-Avi
T3 chain: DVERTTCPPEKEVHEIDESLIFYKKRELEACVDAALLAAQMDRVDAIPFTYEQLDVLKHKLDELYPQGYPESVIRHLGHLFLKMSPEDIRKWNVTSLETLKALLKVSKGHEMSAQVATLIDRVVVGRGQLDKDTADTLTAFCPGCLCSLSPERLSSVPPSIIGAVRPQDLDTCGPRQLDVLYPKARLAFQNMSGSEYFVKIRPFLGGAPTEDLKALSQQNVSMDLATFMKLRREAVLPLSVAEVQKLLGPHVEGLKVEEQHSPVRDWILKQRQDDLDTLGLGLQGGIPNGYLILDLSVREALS
The assay is described as above. Here is the method:
as §2
as §3, with “μl/min. Subtracted data (flow cell 2−flow cell 1, flow cell 3−flow cell 1, or flow cell 4−flow cell 1) were analysed using BIAevaluation 3.2 Software (GE Healthcare) to identify binding using the model 1:1 binding, local Rmax and with refractive index (RI) constant 0.” for “μl/min.”

The target of assay [6] is T1, cell surface human mesothelin (MSLN). In words: flow cytometry (BD CantoII), NCI-H226 cells + 20 nM soluble MSLN.
For assay [7], the target named is T3, cynomolgus MSLN-His-Avi. Nature of the assay: SPR (see Table 4).
Assay [8] addresses T1, cell surface human mesothelin (MSLN). Nature of the assay: flow cytometry, NCI-H226 cells + 20 nM soluble MSLN. Here is the method: (§4) Cells were centrifuged at 1200 rpm for 3 min and resuspended in ice cold FACS buffer made up of DPBS (Life Technologies, 14190169) and 1% BSA (Sigma-Aldrich, A7906) at 2×10⁶ cells/ml and 50 μl per well was seeded in a 96-well V-bottom plate (Costar, 3894). All mAbs tested were diluted in FACS buffer in 120 μl at a concentration range of 0.01-200 nM (4-fold dilutions). The NCI-H226 cells were then centrifuged, supernatant removed and cells resuspended in 100 μl of each mAb dilution and incubated at 4° C. for 45 min. Cells were washed twice by centrifugation with 150 μl FACS buffer, resuspended in 100 μl containing goat anti-human IgG (γ-chain specific) F(ab′)2 fragment-R-Phycoerythrin antibody (Sigma, P8047) diluted 1:1000 in FACS buffer and incubated at 4° C. for 45 min. The cells were washed once with 150 μl FACS buffer and then with 150 μl DPBS, resuspended in 150 μl DPBS containing DAPI (Biotium, 40043) at 1:10.000 and read on the BDCantoll or iQue (Intellicyt). Data was analysed using FlowJo v10 to determine the signal geometric mean for PE for live cells in each well.
(§5) Cell binding assays using OVCAR-3 cells were performed similarly to the assays described in section 2.4. The effect of the presence of soluble MSLN was tested by pre-incubating the antibodies in the presence or absence of soluble MSLN before mixing with cells and determining if the pre-incubation affected binding to MSLN on the cell surface. […] 60 μl from each well was then added to either FACS buffer alone or to FACS buffer containing 60 μl of 40 nM recombinant hMSLN (R&D systems, 3265-MS-050) (to give a final concentration of 20 nM hMSLN) and pre-incubated at room temperature for 1 hour before 100 μl was added to the cells. Bound antibody was detected using goat anti-human anti-Fcγ Alexa-Fluor 488 (Jackson Immunoresearch, 109-546-098).
(§6) The method used was exactly as described in section 3.1.4.
For orientation: A flow cytometer gives signals particle by particle.

For assay [9] the target is unchanged. Nature of the assay: flow cytometry, NCI-H226 cells. On the procedure:
as §4, §5, §6

Assay [10] deals with T3, cynomolgus MSLN-His-Avi. In words: SPR steady-state analysis, cMSLN-His-Avi coated at about 50 RU. Here is the method: The association time was 1000 sec to steady state and the dissociation time was 30 sec. Running buffer was HBS-EP (GE Healthcare BR100188). Flow cells were regenerated by injecting Glycine-HCl pH1.5 at a flow rate of 30 μl/min for 30 seconds. Data were analysed by double referencing against a flow cell which was intentionally left blank (no antigen coating). Steady state affinity model was used to analyse kinetic data using the BiaEvaluation software version 3.2.

The values that follow come from patent US20220267421A1 (INVOX PHARMA, published 2022).

As a reminder, the EC50 is the concentration giving half of the maximal effect. One may read the Kd as a measure of binding affinity in units of concentration. Lower therefore signals tighter binding.

T2 sequence (Q13421 other isoform, or with tags, fused parts or gaps): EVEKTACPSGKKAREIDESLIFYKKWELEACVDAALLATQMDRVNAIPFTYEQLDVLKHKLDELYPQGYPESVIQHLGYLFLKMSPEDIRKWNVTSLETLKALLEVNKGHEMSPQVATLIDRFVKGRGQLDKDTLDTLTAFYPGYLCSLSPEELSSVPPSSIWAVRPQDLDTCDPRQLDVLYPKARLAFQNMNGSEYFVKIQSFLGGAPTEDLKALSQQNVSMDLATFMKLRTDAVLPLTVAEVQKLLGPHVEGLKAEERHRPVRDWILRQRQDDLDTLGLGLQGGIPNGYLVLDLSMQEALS
T1 sequence (Q13421 other isoform, or with tags, fused parts or gaps limits assumed): as the sequence (Q13421 other isoform, or with tags, fused parts or gaps) above

B1: FS22-053-008-AA/FS28-185 (bispecific antibody, human IgG1, kappa, L234A L235A, V domains shown)
VH: EVQLLESGGGLVQPGGSLRLSCAASGFTFTTSAMSWVRQAPGKGLEWVSRINPYEGETNYADSVKGRFTISRDNSKNTLYLQMNSLRAEDTAVYYCARGWSIATYYKSAMDYWGQGTLVTVSS
VL: EIVLTQSPGTLSLSPGERATLSCRASQSVSSSYLAWYQQKPGQAPRLLIYGASSRATGIPDRFSGSGSGTDFTLTISRLEPEDFAVYYCQQSSYSAPVTFGQGTKVEIKR
For B1, the EC50 in assay [1] stood at 16.3 nM; in assay [6], 14.3 nM. The Kd was found to be 30.1 nM in the assay with human MSLN-His-Avi [2], 452 nM in the assay with human MSLN-His-Avi [4] and 362 nM in the assay with cynomolgus MSLN-His-Avi [5]. For the same molecule, the “Ratio of KD in solution/immobilised for human MSLN-His-Avi” value with human MSLN-His-Avi [3] is 15.

B2: FS22-053-008-AA/FS28-024 mAb^2 (bispecific antibody, human IgG1, kappa, L234A L235A, V domains shown)
VH: EVQLLESGGGLVQPGGSLRLSCAASGFTLSYSSMSWVRQAPGKGLEWVSFITPSTGYTHYADSVKGRFTISRDNSKNTLYLQMNSLRAEDTAVYYCARRALTFDYWGQGTLVTVSS
VL: EIVLTQSPGTLSLSPGERATLSCRASQSVSSSYLAWYQQKPGQAPRLLIYGASSRATGIPDRFSGSGSGTDFTLTISRLEPEDFAVYYCQQASSYPLTFGQGTKVEIKR
notes: also called FS28-024 (in FS22-053-008-AA mAb^2 format); FS28-024 (in CD137 mAb2 format)
With B2, the “fold lower affinity for cyno MSLN than for human MSLN” value with cynomolgus MSLN-His-Avi [7] was around 5 fold. The results for the Kd in the assay with human MSLN-His-Avi [2], with human MSLN-His-Avi [4] and with cynomolgus MSLN-His-Avi [5] were 0.39 nM, 46.5 nM and 240 nM, respectively. In the assay with human MSLN-His-Avi [3], the “Ratio of KD in solution/immobilised for human MSLN-His-Avi” value stood at 119. The EC50 in assay [8] is 5.04 nM; in assay [9], 1.47 nM. In addition, the results for the “Emax (MFI)” value in assay [8] and in assay [9] were 1.02e+06 MFI and 981000 MFI, respectively.

B3: FS22-172-003-AA/FS28-256-271 mAb^2 (bispecific antibody, human IgG1, kappa, L234A L235A)
heavy: EVQLLESGGGLVQPGGSLRLSCAASGFTFTHTYMSWVRQAPGKGLEWVSAISPTYSTTNYADSVKGRFTISRDNNKNTLYLQMNSLRAEDTAVYYCARYNAYHAALDYWGQGTLVTVSSASTKGPSVFPLAPSSKSTSGGTAALGCLVKDYFPEPVTVSWNSGALTSGVHTFPAVLQSSGLYSLSSVVTVPSSSLGTQTYICNVNHKPSNTKVDKKVEPKSCDKTHTCPPCPAPEAAGGPSVFLFPPKPKDTLMISRTPEVTCVVVDVSHEDPEVKFNWYVDGVEVHNAKTKPREEQYNSTYRVVSVLTVLHQDWLNGKEYKCKVSNKALPAPIEKTISKAKGQPREPQVYTLPPSRDELPYIIPPYNQVSLTCLVKGFYPSDIAVEWESNGQPENNYKTTPPVLDSDGSFFLYSKLTVGADRWLEGNVFSCSVMHEALHNHYTQKSLSLSPG
light: EIVLTQSPGTLSLSPGERATLSCRASQSVSSSYLAWYQQKPGQAPRLLIYGASSRATGIPDRFSGSGSGTDFTLTISRLEPEDFAVYYCQQTVPYPYTFGQGTKVEIKRTVAAPSVFIFPPSDEQLKSGTASVVCLLNNFYPREAKVQWKVDNALQSGNSQESVTEQDSKDSTYSLSSTLTLSKADYEKHKVYACEVTHQGLSSPVTKSFNRGEC
Take B3: the “fold difference of binding to cyno MSLN against human MSLN” value with cynomolgus MSLN-His-Avi [10] is at most 3 fold.
